Experimental data published in the RNAGym collection of RNA variant scans (doi:10.1073/pnas.2313332121).
Variants at the floor of the assay were thinned out.

B1: TPR 5TU (parent)
chain: GGAUCUUCUCGAUCUAACAAAAAAGACAAAUCUGCCACAAAGCUUGAGAGCAUCUUCGGAUGCAGAGGCGGCAGCCUUCGGUGGCGCGAUAGCGCCAACGUUCUCAACUAUGACACGCAAAACGCGUGCUCCGUUGAAUGGAGUUUAUCAUG

Variants of: B1
Assay: polymerase ribozyme fitness, log enrichment relative to wild type (log ratio); higher = more active; in vitro selection for triplet polymerase activity
How it was run: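 Fitness measures genotype enrichment against wild-type enrichment on a logarithmic scale, with inverse-variance-weighted averaging of replicates. The logarithm is base 2, and genotypes were kept only with ≥10 input reads and ≥1 read per output in Illumina sequencing. The sequenced libraries came from one triplicate in vitro selection round, including frozen incubation at −7 °C, of PCR-built, transcribed mutant libraries of each subunit of a heterodimeric triplet polymerase ribozyme.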

Point of comparison: G83C G136C, “polymerase ribozyme fitness (log ratio)” value -4.09. Against it:
- C85A A89G U146C — higher, -2.83
- G83U C149U — higher, -1.76
- G84C C123G U146G — higher, -2.7
- G84U A89U U104G U127A — lower, ≤ -4.2
- G84U U144A — higher, -3.22
- G83C A89U G124U — higher, -1.35
- U82G C118G — higher, -1.09
- U82G G86A A120G — higher, -1.53
- G83U U102C — higher, -1.16
- U82G C96G C118U G141A A147U — higher, -1.93
- G83C C85G C103A — lower, ≤ -4.2
- G83U U127A — higher, -3.18
- U82G G86A — higher, -0.594
- U82G G86U — higher, -1.46
- G83C C125A U144A — higher, -2.36
- C85A C108U U135A U144C — within 0.2 log units, -4.17
- C85A A137G — higher, -2.96
- G83C G126A — higher, 0.0538
- G83C G126U — higher, 0.246
- G84A C105U — higher, 0.191
- C85A A150C — lower, ≤ -4.2
- C85A A150G — higher, -2.41
- G83C G136A — higher, -0.101
- C85A A98U C108A U134G — lower, ≤ -4.2
- G83A U101G A106U U145C — higher, -2.55
- G83U G92C U111A — lower, ≤ -4.2
- G83A C85U A106C C132G G140A — lower, ≤ -4.2
- U82G G100U G128A — lower, ≤ -4.2
- G84A G136A — higher, -0.313
- G84A G136C — higher, -3.25
- G84C C85A G92U C96A A97C C105U — higher, -2.61
- U82G C87U U146C — higher, -0.959
- G83C U145C — higher, -2.18
- G83C U145G — higher, -0.686
- G84U C99G U148A — lower, ≤ -4.2
- G83A A91U G100U — lower, ≤ -4.2
- G83U A121C A142U — higher, -1.46
- U82G U101G — higher, 0.433
- G84A C93U C108G A137U — lower, ≤ -4.2
- G83A A119C A137G G143A — higher, -2.54
- G84U A137U C149A — lower, ≤ -4.2
- G83A A91G C93U C149A — lower, ≤ -4.2
- G84U C87G U90C C96U U145G — lower, ≤ -4.2
- G84A C118A — higher, -1.61
- G84A G94A A98C G124A — higher, -0.811
- G83U C87U — higher, -1.25
- G83U U139G — higher, -0.239
- G83U U151A — lower, ≤ -4.2
- G83U G92A C125G A138G U151A — lower, ≤ -4.2
- G84A U127C U139G A142C — within 0.2 log units, -3.93
- C85A A98G C116U A120C A147U — higher, 0.389
- G84A U101A A115U A121G G124A — lower, ≤ -4.2
- G83C U144C — higher, -1.58
- G84A A98C C105G U148C — higher, -3.35
- G84C A115G — higher, -2.49
- G83U C96A — higher, -0.528
- G83U G88U A150U — higher, -3.49
- G83U C105G A107G U135G G152C — lower, ≤ -4.2
- G83A C105A — higher, -3.15
- G83U A98C C123U C125U C129A — higher, -3.47
- G83C G84U C87U U102G A107U — lower, ≤ -4.2
- G84A U145A — higher, 0.189
- G84A U145C — higher, -0.153
- G83C C125A G136U — higher, -2.54
- G84A G133C G141C — higher, -2.83
- G83U A113U — higher, -2.14
- G83U C87G C99U — lower, ≤ -4.2
- G84U C131G — within 0.2 log units, -3.96
- C85A C116A — higher, 0.744
- G84A A91U G126U G143U — lower, ≤ -4.2
- G83A U151A — higher, -3.69
- G83A C99U — higher, -2.05
- G84A C99U G100U U144A — within 0.2 log units, -4.12
- G84A G88U — higher, -3.57
- G84A G88A — lower, ≤ -4.2
- G84A U146A — higher, -0.719
- G84A G143U — higher, -2.51
- U82G C96U A137C — higher, -3.87
- G83U G100U — within 0.2 log units, -3.9
- G83A A119C — higher, -2.44
- G83A A110C C123G — lower, ≤ -4.2
- G83A C95U A106C A107G — higher, -3.5
